# From patent US20260085114A1 (KYINNO BIOTECHNOLOGY, published 2026)
# Columns and labels:
# [1] = target: T1, human GPRC5D (G protein-coupled receptor class C group 5 member D), on cells (human, UniProt Q9NZD1 1-345); assay: cell-based or functional assay
# [2] = target: T1, human GPRC5D (G protein-coupled …); assay: FACS on MM.1R multiple myeloma cells
# Description: (§1) 100 μl of FACS buffer was then added to each FACS tube for resuspension. 5 μl of PE-labeled, anti-murine Fc tagged secondary antibody (Biolegend, catalog number 409304) was added according to instructions, and incubated at 4° C. in the dark for 30 mins. Then 1 ml of FACS buffer was added, and centrifuged at 1200 rpm at room temperature for 5 mins. The supernatant was discarded followed by washing three times.
# (§2) The experimental process was as described in Example 4, and the cells used were replaced with multiple myeloma cells MM.1R (Kyinno, catalog number KC-0619) and MOLP8 (Kyinno, catalog number KC-0622). […] Control tube 1 (no antibody and secondary antibody, adding only cell suspension) and Control tube 2 (no antibody, adding only cell suspension and secondary antibody) were included.
# [3] = target: T1, human GPRC5D (G protein-coupled …); assay: FACS on MOLP8 multiple myeloma cells
# Description: as §1, §2
# [4] = target: T1, human GPRC5D (G protein-coupled …); assay: FACS on 293T cells expressing human GPRC5D
# Description: as §1
# Control tube 1 (no antibody and secondary antibody, adding only the cell suspension) and Control tube 2 (no antibody, adding only the cell suspension and the secondary antibody) were included.
# [5] = target: T2, monkey (cyno) GPRC5D, on 293T cells (monkey (cyno)); assay: FACS on 293T cells expressing monkey (cyno) GPRC5D
# T2 construct: whole, on cells; also called monkey GPRC5D
# Description: as §1
# The experimental process was as described in Example 4. […] Control tube 1 (no antibody and secondary antibody, adding only cell suspension) and Control tube 2 (no antibody, adding only cell suspension and secondary antibody) were included.
# [6] = target: T3, human GPRC5A, on 293T cells (human, UniProt Q8NFJ5 1-357); assay: FACS on 293T-GPRC5A cells, antibody at 2 µg/mL; control tubes 8.30 and 8.41
# T3 construct: whole, on cells; also called 293T-GPRC5A
# T3 sequence (Q8NFJ5 whole entry): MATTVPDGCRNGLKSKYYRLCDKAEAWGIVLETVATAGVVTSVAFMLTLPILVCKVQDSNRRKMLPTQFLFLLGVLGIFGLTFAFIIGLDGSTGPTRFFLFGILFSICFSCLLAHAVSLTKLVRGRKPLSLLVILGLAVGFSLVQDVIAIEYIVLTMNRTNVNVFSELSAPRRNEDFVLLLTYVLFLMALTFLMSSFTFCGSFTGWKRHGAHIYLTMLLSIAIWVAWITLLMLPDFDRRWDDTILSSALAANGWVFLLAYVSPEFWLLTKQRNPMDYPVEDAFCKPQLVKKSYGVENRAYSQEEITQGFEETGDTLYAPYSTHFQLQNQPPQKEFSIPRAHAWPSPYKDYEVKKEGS
# Description: as §1
# (§3) The experimental process was as described in Example 4, cells expressing other members of G protein-coupled receptor class C group 5 as follows were used: 293T cells expressing human GPRC5A, 293T-GPRC5A (Kyinno, catalog number KC-1888), 293T cells expressing human GPRC5B, 293T-GPRC5B (Kyinno, catalog number KC-1854), and 293T cells expressing human GPRC5C, 293T-GPRC5C (Kyinno, catalog number KC-1889). […] Control tube 1 (no antibody and secondary antibody, adding only cell suspension) and Control tube 2 (no antibody, adding only cell suspension and secondary antibody) were included.
# [7] = target: T4, human GPRC5B, on 293T cells (human, UniProt Q9NZH0 29-403); assay: FACS on 293T-GPRC5B cells, antibody at 2 µg/mL; control tubes 8.55 and 8.26
# T4 construct: whole, on cells; also called 293T-GPRC5B
# T4 sequence (Q9NZH0 29-403): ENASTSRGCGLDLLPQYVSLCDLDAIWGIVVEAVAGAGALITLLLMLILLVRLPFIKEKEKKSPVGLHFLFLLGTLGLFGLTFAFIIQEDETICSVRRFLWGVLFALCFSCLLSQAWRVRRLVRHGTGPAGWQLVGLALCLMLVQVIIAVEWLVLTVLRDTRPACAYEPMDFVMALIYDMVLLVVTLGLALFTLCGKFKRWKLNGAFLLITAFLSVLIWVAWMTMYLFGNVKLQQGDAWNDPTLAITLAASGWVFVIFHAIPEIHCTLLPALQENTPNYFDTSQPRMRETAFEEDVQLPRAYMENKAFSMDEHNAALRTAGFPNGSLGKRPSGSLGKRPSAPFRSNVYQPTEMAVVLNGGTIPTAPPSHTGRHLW
# Description: as §1, §3
# [8] = target: T5, human GPRC5C, on 293T cells (human, UniProt Q9NQ84 24-441); assay: FACS on 293T-GPRC5C cells, antibody at 2 µg/mL; control tubes 8.86 and 8.73
# T5 construct: whole, on cells; also called 293T-GPRC5C
# T5 sequence (Q9NQ84 24-441): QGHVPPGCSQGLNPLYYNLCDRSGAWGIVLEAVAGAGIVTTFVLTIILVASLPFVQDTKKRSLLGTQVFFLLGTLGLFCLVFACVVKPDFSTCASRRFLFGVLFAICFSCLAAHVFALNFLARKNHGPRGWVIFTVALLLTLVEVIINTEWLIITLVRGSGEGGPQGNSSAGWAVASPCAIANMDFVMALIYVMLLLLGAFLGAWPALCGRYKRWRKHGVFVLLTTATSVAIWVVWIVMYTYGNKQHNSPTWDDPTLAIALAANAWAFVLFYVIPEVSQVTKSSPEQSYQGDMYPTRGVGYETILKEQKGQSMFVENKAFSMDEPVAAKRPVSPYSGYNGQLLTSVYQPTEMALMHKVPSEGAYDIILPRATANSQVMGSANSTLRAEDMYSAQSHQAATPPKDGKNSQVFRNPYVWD
# Description: as §1, §3
# [9] = target: T6, human GPRC5D protein (KACTUS, catalog number GPR-HM05P) (human, UniProt Q9NZD1 1-345, limits assumed); assay: Fortebio BLI, antibody captured on AHC chip, human GPRC5D protein as analyte
# T6 construct: Bought reagent used as analyte in the Fortebio assay; the construct is not described
# T6 sequence (Q9NZD1 whole entry): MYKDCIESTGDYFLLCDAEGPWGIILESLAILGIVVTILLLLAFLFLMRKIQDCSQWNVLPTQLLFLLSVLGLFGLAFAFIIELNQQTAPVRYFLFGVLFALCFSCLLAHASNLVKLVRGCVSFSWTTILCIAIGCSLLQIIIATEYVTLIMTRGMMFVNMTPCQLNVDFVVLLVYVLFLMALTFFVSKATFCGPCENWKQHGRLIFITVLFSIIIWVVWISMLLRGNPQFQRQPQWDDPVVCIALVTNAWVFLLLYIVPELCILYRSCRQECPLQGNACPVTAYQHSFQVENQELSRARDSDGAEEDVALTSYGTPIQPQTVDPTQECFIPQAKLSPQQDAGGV
# Description: Antibodies to be tested were prepared into solutions at concentration of 10 μg/mL using PBS buffer, and the antibodies were captured using the AHC chip according to Fortebio's instructions. The pre-prepared human GPRC5D proteins (KACTUS, catalog number GPR-HM05P) (protein starting at a highest concentration of 200 nM, 2-fold diluted, 6 gradients) were flowed through the chip, with the following specific conditions: flow rate 30 μl/min; antigen-antibody binding time 200 seconds, dissociation time 500 seconds. The measured results were fitted using the supporting software designed for the device to analyze the affinity between an antibody and an antigen.
# [10] = target: human CD3 protein (KACTUS) (human); assay: Fortebio BLI, antibody captured on AHC chip, human CD3 protein as analyte
# Sequence of human CD3 protein (KACTUS) (human) (chain, as listed by the source): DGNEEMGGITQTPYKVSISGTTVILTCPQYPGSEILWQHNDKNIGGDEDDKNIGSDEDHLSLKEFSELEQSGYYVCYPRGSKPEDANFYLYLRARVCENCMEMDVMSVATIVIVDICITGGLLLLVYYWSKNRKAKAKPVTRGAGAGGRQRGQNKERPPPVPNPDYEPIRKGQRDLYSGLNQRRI
# [11] = target: T1, human GPRC5D (G protein-coupled …); assay: FACS, hybridoma supernatant on MM1R cells
# [12] = target: T1, human GPRC5D (G protein-coupled …); assay: FACS, hybridoma supernatant on OPM2 cells
# [13] = target: T7, Nalm6 cells (NALM6, Kyinno, catalog number KC-0626); assay: FACS, hybridoma supernatant on Nalm6 cells
# T7 construct: Kept apart from human GPRC5D so that the low MFI values on this line are not laid to the GPRC5D pair
# [14] = target: T1, human GPRC5D (G protein-coupled …); assay: FACS, hybridoma supernatant on NCI-H929 cells
# Description: as §1
# [15] = target: T1, human GPRC5D (G protein-coupled …); assay: FACS, hybridoma supernatant on 293T cells expressing human GPRC5D
# Description: 293T cells expressing human GPRC5D as described above was prepared into a suspension at concentration of 1×10⁵ cells/ml in PBS containing 2% FBS.
# 1 ml of FACS buffer was added to each FACS tube, centrifuged at 1200 rpm for 5 mins. The supernatant was discarded followed by washing three times. At the same time, control tube 1 (no supernatant of the culture and the secondary antibody mentioned below, adding only cell suspension) and control tube 2 (no supernatant of the culture, adding only cell suspension and the secondary antibody mentioned below) were included.
# as §1
# [16] = target: T2, monkey (cyno) GPRC5D, on 293T cells; assay: FACS, hybridoma supernatant on 293T cells expressing monkey GPRC5D
# From the text: According to the method described in Example 4, the binding between the culture supernatant of the hybridoma cells and monkey GPRC5D was detected, except that the human GPRC5D-expressing cells were replaced with 293T cells expressing monkey GPRC5D (Kyinno, catalog number KC-1586).
# [17] = target: T1, human GPRC5D (G protein-coupled …); assay: cell ELISA, hybridoma supernatant on fixed BXPC-3 cells expressing human GPRC5D
# Description: BXPC-3 cells expressing human GPRC5D (Kyinno, catalog number KC-1717) were prepared into a suspension at concentration of 1×10⁵ cells/ml in PBS containing 2% FBS. The suspension was added to a 96-well plate at 100 μl/well and cultured overnight at 37° C. The wells were cleared of their contents and washed three times with washing solution. 80 μl of 4% tissue fixative (Beyotime, catalog number P0099) was added to each well followed by fixing at room temperature for 15 min, washing twice with PBS and drying. 250 μl of blocking solution containing 2% BSA was added to each well followed by incubation at 37° C. for 1 hr and washing three times with PBS. 50-100 μl of the supernatant of the hybridoma cell culture was added to each well. A positive control (adding serum from fusion mice), a negative control (adding serum from normal mice) and a blank control (adding culture medium) were included. The wells were incubated at 37° C. for 1-2 hrs, washed, and dried. Then, the enzyme-labeled secondary antibody, HRP-labeled goat anti-mouse IgG (SIGMA, catalog number A9044-2 ml) was added at dilution of 1:10000 and 50-100 μl/well. The wells were incubated at 37° C. for 1-2 hrs, washed, and dried. 50-100 μl of freshly prepared developing solution TMB was added to each well and incubated at 37° C. for 10-30 mins.
# 2 mol/L H₂SO₄ was added to terminate the reaction, and the OD value was read on an enzyme-linked immunosorbent reader.
# T1 sequence (Q9NZD1 whole entry): as the sequence (Q9NZD1 whole entry) above
Binder,"ADCC reporter (Jurkat-NFAT-luc-CD16-V158 luciferase), Top [1]",EC50 [2] [µg/mL],MFI.Max [2] [MFI],EC50 [3] [µg/mL],MFI.Max [3] [MFI],EC50 [4] [µg/mL],MFI.Max [4] [MFI],EC50 [5] [µg/mL],MFI.Max [5] [MFI],FACS result [6],FACS result [7],FACS result [8],Kd [9] [nM],koff [9] [s⁻¹],kon [9] [M⁻¹ s⁻¹],further results
"humanized antibody 24F5 (hz) (antibody, V domains shown) VH: QVQLVQSGAEVKKPGASVKVSCKASGYTFPYYVMHWVRQAPGQGLEWIGYINPYNDGTKYNEKFKGRATLTSDKSTSTAYMELSSLRSEDTAVYYCARGGVRRYFDYWGQGTTVTVSS VL: DIQMTQSPSTLSASVGDRVTITCRASQDIGSNLNWLQQKPGGTIKRLIYATSSLDSGVPSRFSGSRSGSEYTLTISSLQPDDFATYYCLQYATFPYTFGQGTRLEIKR",25.4,0.0682,177,0.581,133,0.7,8910,0.167,3560,8.45,8.58,8.97,1.36,5.42e-05,39900,–
"humanized antibody 6E97 (hz) (antibody, V domains shown) VH: QVQLVQSGAEVKKPGASVKVSCKASGYTFPYYVIHWVRQAPGQGLEWIGYINPYNAGTKYNEKFKGRATLTSDKSTSTAYMELSSLRSEDTAVYYCARGGVRRYFDYWGQGTTVTVSS VL: DIQLTQSPSTLSASVGDRVTITCRASQDIGSNLNWLQQKPGGTIKRLISATSSLDSGVPSRFSGSRSGSEYTLTISSLQPDDFATYYCLQYATFPYTFGQGTRLEIKR",32.8,0.146,246,0.256,144,0.351,14800,0.192,6250,8.54,8.62,8.78,0.458,2.08e-05,45500,–
"humanized antibody 26D1 (hz) (antibody, V domains shown) VH: QVQLVQSGAEVKKPGASVKVSCKASGYTFTSYTIQWIKQAPGQGLEWIGYIIPSSGYTNYNQKFKDKATLTADKSSNTAYMELSSLTSEDTAVYYCANNYGNWGFTYWGQGTTVTVSS VL: DIQMTQSPSTLSASVGDRVTITCKASQNVGSAVTWYQQKPGKAPRLLIYSASNRYTGVPDRFSGSGSGTEFTLTISSLQPDDFATYFCQQYSNYPLTFGQGTRLEIKR",18.4,0.571,185,0.964,78,0.228,9560,–,12.3,8.46,8.59,8.89,1.7,3.15e-05,18500,"ADCC reporter (Jurkat-NFAT-luc-CD16-V158 luciferase), EC50 [1]: 0.0452 µg/mL"
"humanized antibody 9D7 (hz) (antibody, V domains shown) VH: QVQLQESGPGLVKPSETLSLTCTVSGYSITSDYAWNWIRQPPGKGLEWMGYISYSGSATYSPSLKSRITISRDTSKNQFSLKLSSVTAADTAVYYCARGGIAGRGRWGAMDYWGQGTTVTVSS VL: DIQMTQSPSSLSASVGDRVTITCKASQNVGTNVAWYQQKPGQSPKALIYSASYRDSGVPDRFSGSGSGTDFTLTISSLQPEDFATYYCQQYKSYPLTFGQGTRLEIKR",24.5,0.09,150,0.313,128,0.283,8940,0.378,4260,8.34,8.54,8.48,< 0.001,< 1e-07,22600,–
"humanized anti-CD3 antibody SP34V1 (hz) (antibody, V domains shown) VH: QVQLVESGGGLVKPGGSLRLSCAASGFTFSTYAMNWVRQAPGKGLEWVGRIRSKYNNYATYYADSVKDRFTISRDDAKNSLYLQMNSLRAEDTAVYYCARHGNFGNSYVSYFAYWGQGTTVTVSS VL: DIQMTQSPSSLSASVGDRVTITCRSSTGAVTTSNYANWVQQKPGKAPKALIGGTNKRAPGVPSRFSGSLSGDDATLTISSLQPEDFATYYCALWYSNLWVFGQGTRLEIKR",–,–,–,–,–,–,–,–,–,–,–,–,–,–,–,Kd [10]: 18 nM; koff [10]: 0.00795 s⁻¹; kon [10]: 442000 M⁻¹ s⁻¹
"murine antibody 24F5 (A3 antibody) (antibody, V domains shown, Tested as hybridoma cell culture supernatant; also called murine anti-24F5) VH: QVQLKESGPELVKPGASVKISCKASGYTFPYYVMHWVKQKPGQGLEWIGYINPYNDGTKYNEKFKGKAALTSDKSSSTAYMDLSSLTSEDSAVYYCARGGVRRYFDYWGQGTTLTVSS VL: DIQMTQTPSSLSASLGERVSLTCRASQDIGSNLNWLQQEPDGTIKRLIYATSSLDSGVPKRFSGSRSGSDYSLTISSLESEDFVDYYCLQYATFPYTFGGGTKLEIK",–,–,–,–,–,–,–,–,–,–,–,–,–,–,–,MFI.Max [11]: 991 MFI; EC50 [12]: 5.67 µg/mL; MFI.Max [12]: 1190 MFI; MFI.Max [13]: 106 MFI; MFI.Max [14]: 1100 MFI; EC50 [15]: 0.117 µg/mL; MFI.Max [15]: 9520 MFI; EC50 [16]: 0.268 µg/mL; MFI.Max [16]: 6260 MFI; OD value [17]: 1.54 OD
